Test results as given in patent publication US20170258870.

System: Helix 5 TAT peptide

## recombinant GC mutant N370S
  GC enzyme activity (4-MU substrate): the helix 5 TAT-peptide led to a four-fold increase in the activity of the N370S mutant
